According to article PMC5473941:

Tests used:
[1] = biological target: microtubules polymerised from tubulin (biotinylated, Alexa 647-labelled, taxol-stabilised) (UniProt P02550); assay: single-molecule TIRF microscopy; biotinylated, Alexa 647-labelled, taxol-stabilised microtubules held on PLL-PEG-biotin/streptavidin glass; TMR-dynein at 0.29 and 0.58 nM in TAB (25 mM HEPES pH 7.2, 5 mM MgSO4, 1 mM EGTA, 1 mM DTT) with α-casein, 25 mM KCl and MgATP; room temperature; Kd estimated as Koff (reciprocal of the dwell time) over Kon (binding rate) times 802 binding sites per μm
[2] = biological target: human cytoplasmic dynein-1 heavy chain, wild type, as a subunit of the dynein complex (human) (UniProt Q14204); assay: negative stain EM with 2D classification; dynein at about 0.05 mg/ml in GF150, uranyl acetate; particles sorted into phi, open or ambiguous classes; mean and SEM of 9 draws of 25 micrographs
[3] = biological target: human cytoplasmic dynein-1 heavy chain, wild type, as a subunit of the dynein complex (human) (UniProt Q14204); assay: electron microscopy of single particles; freshly purified protein produced in insect cells; how the proportion was counted is not told

Row | Kd [1] | percent of molecules in the open form (motor domains apart) [2] | percent of molecules in the phi-particle (motor domains self-dimerised) [2] | percent of molecules in the phi-particle (motor domains self-dimerised) [3] | Substance
1 | 5.22 µM | – | – | – | full-length human cytoplasmic dynein-1 complex with the phi-interface mutations K1610E and R1567E in the heavy chain (from UniProt Q14204 1-4646; Q13409 1-638; O43237 1-492; Q9NP97 1-96; P63167 1-89; P63172 1-113)
2 | 16.4 µM | – | – | – | full-length human cytoplasmic dynein-1 complex, wild type (from UniProt Q14204 1-4646; Q13409 1-638; O43237 1-492; Q9NP97 1-96; P63167 1-89; P63172 1-113)
3 | – | 22% | 75% | > 85% | human cytoplasmic dynein-1 heavy chain, wild type, as a subunit of the dynein complex, Q14204 1-4646
